Measured values: patent US20170299608A1 (NGM BIOPHARMACEUTICALS, published 2017)
Each block holds one binder with its values, some of them ahead of it.

Tests used:
[1] = molecular target: T1, cynomolgus monkey GFRAL, expressed on HEK293T cells (cynomolgus monkey, UniProt Q6UXV0 19-394 (human entry)); test: cell-based or functional assay
T1 chain: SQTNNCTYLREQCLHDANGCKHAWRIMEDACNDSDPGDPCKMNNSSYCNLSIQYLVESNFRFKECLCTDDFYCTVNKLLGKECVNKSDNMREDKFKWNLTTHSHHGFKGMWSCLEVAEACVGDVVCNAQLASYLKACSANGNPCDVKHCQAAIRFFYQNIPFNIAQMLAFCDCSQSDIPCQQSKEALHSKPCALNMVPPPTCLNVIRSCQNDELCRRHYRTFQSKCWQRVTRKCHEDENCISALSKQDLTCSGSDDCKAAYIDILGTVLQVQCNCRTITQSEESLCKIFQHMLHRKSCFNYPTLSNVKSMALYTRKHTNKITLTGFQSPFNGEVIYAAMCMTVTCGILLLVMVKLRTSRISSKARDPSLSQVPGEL

[2] = molecular target: T2, human GFRAL, full length, expressed on HEK293 / HEK293T cells (human, UniProt Q6UXV0 20-394); test: cell-based or functional assay
T2 sequence: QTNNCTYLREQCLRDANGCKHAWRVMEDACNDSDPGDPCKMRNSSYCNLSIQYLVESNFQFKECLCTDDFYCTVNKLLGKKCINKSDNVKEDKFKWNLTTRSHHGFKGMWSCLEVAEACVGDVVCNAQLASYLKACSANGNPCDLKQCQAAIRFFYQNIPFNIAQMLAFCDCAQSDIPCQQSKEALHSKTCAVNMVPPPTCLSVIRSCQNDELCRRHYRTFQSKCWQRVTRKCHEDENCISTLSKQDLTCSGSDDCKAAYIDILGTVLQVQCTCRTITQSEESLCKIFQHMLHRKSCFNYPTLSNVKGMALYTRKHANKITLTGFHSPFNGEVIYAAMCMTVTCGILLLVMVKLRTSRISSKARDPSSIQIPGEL

[3] = molecular target: T3, mouse GFRAL, expressed on HEK293T cells (mouse, UniProt Q6SJE0 20-393); test: cell-based or functional assay
T3 sequence: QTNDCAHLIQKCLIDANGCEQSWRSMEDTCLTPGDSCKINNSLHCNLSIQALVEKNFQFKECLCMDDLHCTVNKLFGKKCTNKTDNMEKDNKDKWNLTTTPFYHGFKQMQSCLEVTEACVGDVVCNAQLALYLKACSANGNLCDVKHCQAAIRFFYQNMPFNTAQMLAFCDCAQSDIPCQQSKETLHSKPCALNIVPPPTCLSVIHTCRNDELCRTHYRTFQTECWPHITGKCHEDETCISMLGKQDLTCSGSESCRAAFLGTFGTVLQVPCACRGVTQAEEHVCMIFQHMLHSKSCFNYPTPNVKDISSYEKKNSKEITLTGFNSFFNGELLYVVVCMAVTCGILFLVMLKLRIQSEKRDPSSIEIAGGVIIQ

[4] = molecular target: T4, rat GFRAL, expressed on HEK293T cells (rat, UniProt D3ZB94 20-394); test: cell-based or functional assay
T4 sequence: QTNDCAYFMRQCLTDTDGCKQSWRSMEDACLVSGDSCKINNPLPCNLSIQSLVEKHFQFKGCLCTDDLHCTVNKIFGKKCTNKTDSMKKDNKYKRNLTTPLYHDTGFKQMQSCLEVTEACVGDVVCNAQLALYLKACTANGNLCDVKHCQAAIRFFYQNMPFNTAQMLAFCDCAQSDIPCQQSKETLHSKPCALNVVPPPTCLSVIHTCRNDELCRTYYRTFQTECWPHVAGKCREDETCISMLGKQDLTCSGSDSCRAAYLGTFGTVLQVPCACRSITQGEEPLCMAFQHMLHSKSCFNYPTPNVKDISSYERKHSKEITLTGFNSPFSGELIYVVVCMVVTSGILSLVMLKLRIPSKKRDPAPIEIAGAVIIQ

[5] = molecular target: T2, human GFRAL, full length, expressed on …; test: radio-ligand competition: unlabeled GDF15 displacing 0.15 nM ^125I-GDF15 from HEK293-GFRAL cells
Description: HEK293-GFRAL cells were suspended in ice-cold binding buffer (Dulbecco's modified Eagle's medium containing 2 mg/ml BSA, and 25 mM HEPES, pH 7.4) and transferred to pre-wetted Multiscreen filter plates (96-well Dura PVDF 0.65 um Opaque; Millipore), which were kept on ice. Typically, 1×10⁵ of cells in 25 μl were used per well. […] Plates were then transferred to a vacuum filtration manifold (Pall Corporation) and supernatants were filtered. Each well was washed four times with 100 μl of ice cold binding buffer. Bound ¹²⁵I-GDF15 (CPM) were measured by scintillation counting (150 μl/well of EcoLite, MP Biomedicals, Santa Anna, Calif.) using MicroBeta2 Plate Counter (Perkin Elmer). The concentrations (in nM) of unlabeled inhibitors used in this experiment are as follows. GDF15 and GFRAL-Fc: 100, 25, 6.25, 1.56, 0.39, 0.098, 0.024, 0.006; 1M03: 1000, 250, 62.5, 15.63, 3.91, 0.98, 0.24, 0.06.

[6] = molecular target: T2, human GFRAL, full length, expressed on …; test: radioligand saturation binding to HEK293 cells expressing human GFRAL, equilibrium, 2 hr at 4 °C
Description: HEK293 or HEK293-human GFRAL cells were suspended in ice-cold binding buffer (Dulbecco's modified Eagle's medium containing 2 mg/ml BSA, and 25 mM HEPES, pH 7.4) and transferred to pre-wetted Multiscreen filter plates (96-well Dura PVDF 0.65 um Opaque; Millipore), which were kept on ice. Typically, 1×10⁵ of cells in 25 μl were used per well. Cells were incubated with 25 μl of binding buffer containing serial dilution of ¹²⁵I-GDF15 (2 fold serial dilution from 1000 pM to 0.1 pM final reaction concentration) with or without unlabeled GDF15 (500 nM final reaction concentration) for 2 hr at 4° C. Plates were then transferred to a vacuum filtration manifold (Pall Corporation) and supernatants were filtered. Each well was washed four times with 100 μl of ice cold binding buffer. Bound ¹²⁵I-GDF15 were measured by scintillation counting (150 μl/well of EcoLite, MP Biomedicals, Santa Anna, Calif.) using MicroBeta2 Plate Counter (Perkin Elmer). Bound (molecule/cell) was calculated according to a standard curve correlating CPM and molarity of ¹²⁵I-GDF15.
To determine the binding affinity of GDF15 to GFRAL, radio-labeled ¹²⁵I-GDF15 was used to bind HEK293 cells expressing human GFRAL (FIG. 2A) under equilibrium conditions. […] Excess amount of unlabeled GDF15 (500 nM) reduced the ¹²⁵I-GDF15-GFRAL binding to ‘non-specific’ background level. […]

EC50 of Elk/GAL4-luciferase reporter in HEK293T cells co-transfected with cynomolgus monkey GFRAL and RET9 [1]: 5.2 pM
EC50 of Elk/GAL4-luciferase reporter in HEK293T cells co-transfected with human GFRAL and human RET9 [2]: 2.1 pM
EC50 of Elk/GAL4-luciferase reporter in HEK293T cells co-transfected with mouse GFRAL and RET9 [3]: 1.5 pM
EC50 of Elk/GAL4-luciferase reporter in HEK293T cells co-transfected with rat GFRAL and RET9 [4]: 6.2 pM
IC50 [5]: 400 pM
B1: mature human GDF15 (112 amino acids) (ligand)
chain: ARNGDHCPLGPGRCCRLHTVRASLEDLGWADWVLSPREVQVTMCIGACPSQFRAANMHAQIKTSLHRLKPDTVPAPCCVPASYNPMVLIQKTDTGVSLQTYDDLLAKDCHCI
notes: also called hGDF15; unlabeled GDF15

Kd [6]: ~200 pM
B2: ^125I-GDF15 (radio-iodinated mature human GDF15) (ligand)
chain: B1 chain
modifications: 125I label, site not stated
notes: Labelled form of m1; also called radio-labeled GDF15
